Data as given in publication PMC6774519.

What was measured:
[1] = tested on: #B1-3 anti-m6A monoclonal antibody (guinea pig (Hartley)); test: UV crosslinking, IP and RT truncation (footprinting); details: 41 clones sequenced; m6A at position 14; SPR: Biacor T100, HBS-EP+ buffer, 30 ul/min, biotin-RNA at 20 RU on SA chip, antibody 0-27 nM, 1:1 fit; ELISA: PBS, 3 h, room temperature; UV-crosslink IP: …
[2] = tested on: #B1-1 anti-m6A monoclonal antibody (guinea pig (Hartley)); test: SPR; details: m6A at position 6; SPR: Biacor T100, HBS-EP+ buffer, 30 ul/min, biotin-RNA at 20 RU on SA chip, antibody 0-27 nM, 1:1 fit; ELISA: PBS, 3 h, room temperature; UV-crosslink IP: …
[3] = tested on: #B1-3 anti-m6A monoclonal antibody (guinea pig (Hartley)); test: SPR; details: m6A at position 6; SPR: Biacor T100, HBS-EP+ buffer, 30 ul/min, biotin-RNA at 20 RU on SA chip, antibody 0-27 nM, 1:1 fit; ELISA: PBS, 3 h, room temperature; UV-crosslink IP: …
[4] = tested on: #B1-3 anti-m6A monoclonal antibody (guinea pig (Hartley)); test: pull-down (protein A IP); details: m6A at position 6; SPR: Biacor T100, HBS-EP+ buffer, 30 ul/min, biotin-RNA at 20 RU on SA chip, antibody 0-27 nM, 1:1 fit; ELISA: PBS, 3 h, room temperature; UV-crosslink IP: …

| Sequence | binding signal (% RT truncations at m6A) [1] | Kd [2] [nM] | Kd [3] [nM] | binding signal (% immunoprecipitated) [4] |
| --- | --- | --- | --- | --- |
| AUCAUCUUUCGGGACUGACCUGAAAUGAACCCUA [Snord-oligo (Snord2, 34 nt)] | 68 |  |  |  |
| NNNGGACNNN [m6A-oligo] |  | 2.5 | 6.5 | 35 |
